The supplement of paper PMC12042874
± gives the uncertainty stated by the source.

assay: amyloid nucleation score (Sup35N fusion, yeast selection) (log enrichment); library NNK3; higher = more nucleation; inactive = no reads after selection
Summary of the method: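 For the nucleation score, DiMSum gave the log enrichment of output over input reads, centred on the mode score of non-aggregating sequences. Psi-negative yeast expressing Sup35N fused to peptides of 20 random codons were induced with 100 μM copper sulfate for 24 hours and grown 7 days at 30°C on medium lacking adenine and uracil. Input and output plasmid inserts were Illumina-sequenced, and sequences with under 100 input reads were excluded.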

| Substance | amyloid nucleation score |
| --- | --- |
| PGWLPQGMDNNSLTAVCVTI | inactive |
| PIIFNFLRIM | 1.7 ± 0.058 |
| PILELGGRSFTTWRC | inactive |
| PILMISCAAGKELQLKVLWN | inactive |
| PITMLE | inactive |
| PIVRRKSPPRHYENELRGYS | inactive |
| PKFAHSEHVVNSNLFYCVEA | inactive |
| PKFFEAPQLQLFDAYSSMDF | inactive |
| PLCFLFNQFSYGA | inactive |
| PLDVNGYMNVTSGRRMCARR | inactive |
| PLESSWSK | inactive |
| PLGLAILFSSPSTFLYFNFD | inactive |
| PLIYSTLNCKRM | inactive |
| PLLLHVST | inactive |
| PLPAYCGYVLIGVHGYPFDI | inactive |
| PLPDRGSFFTVSNLNEWSAV | inactive |
| PLPLCKVM | -0.039 ± 0.66 |
| PLSSSLGWVCL | inactive |
| PLTPD | inactive |
| PMGNRAWFPFLYEDQKPRIS | inactive |
| PMMVWFSNFLYVASMGPDSF | inactive |
| PMSVRRTVFCPSTSM | inactive |
| PMVKPSNLCYSSHCSMGTRG | inactive |

| Substance | amyloid nucleation score |
| --- | --- |
| PMYPGIVGSRAIMQRLVGCC | inactive |
| PNICGLGYYRLWSMLGITCW | inactive |
| PNISGGDAIEGLFFFRVGRE | 1.04 ± 0.14 |
| PNRWLSRLALRIFLGHCEPV | inactive |
| PNSLRRCVSRLVPRGLPRKR | inactive |
| PPSISSPFALRVFTFVLRY | inactive |
| PQMQAISSHVCLWG | inactive |
| PRCVC | inactive |
| PRDYMINNLLVFQSRG | inactive |
| PRLKFASYVMEMPLKFGEGI | inactive |
| PRLLRVSAIKSGRCPKGKKS | inactive |
| PRLTFSVVVRFCIHTLCLLK | inactive |
| PRNFVANPVELNKGKDFIPS | inactive |
| PRRSERYFCFF | 0.443 ± 0.23 |
| PRRTNRVNKSISSVLSLRIG | 0.517 ± 0.57 |
| PRTCMATSGPSGGHKSLFGF | inactive |
| PSGVTSCLKEWDSRDHGHRH | inactive |
| PSLRLQTTDILHKNSNY | inactive |
| PSSLKCKLAI | inactive |
| PSSLKYSKRVLSVSIHWERL | inactive |
| PSVTLQHSGIATWSILDRTL | 0.316 ± 0.26 |
| PTAFCNSSQYV | inactive |
| PTAKRM | inactive |

| Substance | amyloid nucleation score |
| --- | --- |
| PTGGKKVGIASTFSLSVGTV | -0.08 ± 0.27 |
| PTGSFMLLET | inactive |
| PTLCNRGLACDEHSHR | inactive |
| PTRNYCLLVKDY | inactive |
| PTSFLVYRMKRWFRASMSSR | inactive |
| PTSFYPVQRPPRFCAGHFRS | inactive |
| PTTCSNFSAYWNVCDPHNIS | inactive |
| PVEPI | inactive |
| PVFQLNNFTYMRVPCLRGLN | inactive |
| PVHSMASQLPYNNNTTKCLV | inactive |
| PVLSYMRMSI | inactive |
| PVPLAMYFYVALIYFDWW | inactive |
| PVQACRCKSH | inactive |
| PVVTVHAWHRFNMHL | inactive |
| PVYERPRCQNFLGCYWSCAQ | inactive |
| PWCLNWVITDDCRFYCGLRV | inactive |
| PWGPW | inactive |
| PWIGVNINSSVLVMVFGGGM | 1.97 ± 0.079 |
| PWMHLYRHAMFISAHLRYSC | inactive |
| PWRLIAALACVYTWPLGLRG | inactive |
| PYAPVWKRGRNYFTNSFLYM | inactive |
| PYFTDAFVNEMDMQCH | inactive |
| QANFYPN | inactive |

| Substance | amyloid nucleation score |
| --- | --- |
| QARKDDDKAQNKCSR | inactive |
| QAYAS | -0.099 ± 0.96 |
| QCEAGSGIIAVLHY | inactive |
| QDLMRTEHFNYS | inactive |
| QDNVKVVGAVGFYDILNGVE | inactive |
| QEIRTVTGALTDTWIVFICR | inactive |
| QFCSI | inactive |
| QFFCFNRLWDWVTFRVIDMS | inactive |
| QFGSWD | inactive |
| QFKLHCYRGMVVNHSLMCDT | inactive |
| QFMNKIIMCLGSF | -0.263 ± 0.58 |
| QFPSFANIIANCPLGFLWYA | inactive |
| QFYGLHMAFGKQVNALYTGH | inactive |
| QGISQPRHCFY | inactive |
| QGKCDSELRAAAMDI | inactive |
| QGLSCDFRVLLLIYRSCGRG | inactive |
| QGSLVKFS | inactive |
| QGSMLRHY | inactive |
| QGYLRKYPVTGICVIYECDG | inactive |
| QHKKKIAF | inactive |
| QHNSK | inactive |
| QHWWSYWMFSGKRQCVVFPV | inactive |
| QIFLCTGFCR | 2.69 ± 0.062 |

| Substance | amyloid nucleation score |
| --- | --- |
| QILGTQAGYYCSREGFANL | inactive |
| QILLFSFRVLFAGYRKIAST | inactive |
| QIPSGVVCGMNGYCLGAVTR | inactive |
| QIVRYASSQCDCRNFLSTVE | inactive |
| QKHNSIFMLAVCCYKSCKQ | 1.07 ± 0.084 |
| QLCFGVMLRCSCCGKQVWEK | 1.84 ± 0.1 |
| QLCLCRKATLMSPTRLLQRA | -0.41 ± 1.9 |
| QLHRENEVVRYVF | inactive |
| QLKSVRACGRRGPLSQ | inactive |
| QLLVF | -1.23 ± 1.9 |
| QLRASA | inactive |
| QLVFYHVDLHILPFWSAI | 2.15 ± 0.081 |
| QLWNWVFYYISNILGKGMHL | inactive |
| QMRTWSKIYICTKPFL | 1.07 ± 0.1 |
| QPVTRLFFISGSRGDLVEKH | inactive |
| QRAMYCKSLMSF | inactive |
| QRDHMGFSGDLW | inactive |
| QRFPKCI | inactive |
| QRFYILPRQCNALKGIITSL | inactive |
| QRLVINDMMPLFFWHSNMGD | inactive |
| QRVSFCIEVIGFQ | -0.042 ± 0.98 |
| QRYTFIIIGTGWTGYYRHTP | -0.156 ± 0.41 |
| QSEALNNFWVGSILSYMVLG | inactive |

| Substance | amyloid nucleation score |
| --- | --- |
| QSKFFGQWFLRQND | 0.299 ± 0.21 |
| QSKSYFTL | inactive |
| QSPRRRMQSDIWS | inactive |
| QSSCGIMQPYRQWMPYSTYG | inactive |
| QSSKDTWRCASDKYERSGKR | inactive |
| QSSLLSTVNGVFKSDTRVRV | inactive |
| QSTGCLYSYLLANVGKSSGK | inactive |
| QSYVFVVLTPWVSRCGIGLA | inactive |
| QTGLVMWQLTFTYPLHVWNM | inactive |
| QTNLGPFVPSYGCFLCWMEG | inactive |
| QTSMVVDDYCILYVLHWGWG | inactive |
| QTVKHIKICGVCWVSMLMF | 2.07 ± 0.086 |
| QVILKNMGPNIVSYGLG | inactive |
| QVLFAYIYLSLVNVSQG | 1.03 ± 0.14 |
| QVNKFCYCMVDKLVVVH | 2.27 ± 0.074 |
| QVTLWFKKNLSELM | inactive |
| QWCCVTRFIGYSKGYGRKAP | inactive |
| QWFRKLFYLTSLEDAPQIPR | inactive |
| QWIVDFCNCTWEVVRVLRFC | inactive |
| QWSNCDMASAYYAYRNLNAD | inactive |
| QWVSLGLVGVGQ | inactive |
| QYDIVLCGQWYGLSKGLRYS | inactive |
| QYFPDIY | inactive |

| Substance | amyloid nucleation score |
| --- | --- |
| QYVYLCRYLNMRPACYDMVV | -0.329 ± 0.8 |
| RACARVLLEVCFLFEFSMST | inactive |
| RACYLF | inactive |
| RAFFDTSCGMSLDPSLIPTG | inactive |
| RAFFLVIAIFNKVEVVSGST | 1.15 ± 0.14 |
| RAHIPWKRCFV | -1.06 ± 1.9 |
| RAKVNSRGCEESFF | -0.007 ± 0.73 |
| RALLTGWTMSRPGLFIIATS | -0.273 ± 1.1 |
| RAVTSWYVVRWFIRYNTSNA | inactive |
| RAVYSGVSMD | inactive |
| RAYFGCFQGFILLFSYLMC | inactive |
| RCCLNTVPSAFTGYKNPTVK | inactive |
| RCDRVCGWGDRFNAGSGYRW | inactive |
| RCECVPPNQTRCYQRLASS | inactive |
| RCEFIFS | inactive |
| RCFKLLNSTECCSKWVRAFS | inactive |
| RCGKPVGRTYGLGISIEKAR | inactive |
| RCIGALRTRPSTEGRTSLRI | inactive |
| RCMIVASFYLSLIWKI | inactive |
| RCNALSLWIYNEKSWNNTWY | 1.74 ± 0.084 |
| RCNLGTAAHFCKY | inactive |
| RCTGRLRTVGRSSMLEFEFV | inactive |
